Measurements as given in patent US9765127.

Biological target: porcine pancreatic secretory PLA2 enzyme (sPLA2 1B) (porcine) (UniProt P00592)
Assay: cell-based or functional assay

Chain of UniProt P00592 (P00592 23-146): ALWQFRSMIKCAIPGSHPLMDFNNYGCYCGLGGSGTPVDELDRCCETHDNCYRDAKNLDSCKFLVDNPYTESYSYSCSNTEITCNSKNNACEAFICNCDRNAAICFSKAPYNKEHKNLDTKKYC

% inhibition of sPLA2-1B activity (fluorescent HPLC assay, cleavage of UNIBIPY substrate): 83%
Substance: recombinant human SCGB3A2 with N-terminus ATA (from UniProt Q96PL1 19-93)
